Patent CN115505041A

Biological target: 人EphA2 (human EphA2 on cells: 293T-EphA2 stable line and EphA2-positive tumour lines HCT116, HepG2, HCC827, MDA-MB-231) (human) (UniProt P29317)
Assay: FACS on 293T-EphA2 cells, EphrinA1-hFc alone (positive control without hybridoma supernatant), APC anti-human IgG Fc

Chain of UniProt P29317 (P29317 24-976): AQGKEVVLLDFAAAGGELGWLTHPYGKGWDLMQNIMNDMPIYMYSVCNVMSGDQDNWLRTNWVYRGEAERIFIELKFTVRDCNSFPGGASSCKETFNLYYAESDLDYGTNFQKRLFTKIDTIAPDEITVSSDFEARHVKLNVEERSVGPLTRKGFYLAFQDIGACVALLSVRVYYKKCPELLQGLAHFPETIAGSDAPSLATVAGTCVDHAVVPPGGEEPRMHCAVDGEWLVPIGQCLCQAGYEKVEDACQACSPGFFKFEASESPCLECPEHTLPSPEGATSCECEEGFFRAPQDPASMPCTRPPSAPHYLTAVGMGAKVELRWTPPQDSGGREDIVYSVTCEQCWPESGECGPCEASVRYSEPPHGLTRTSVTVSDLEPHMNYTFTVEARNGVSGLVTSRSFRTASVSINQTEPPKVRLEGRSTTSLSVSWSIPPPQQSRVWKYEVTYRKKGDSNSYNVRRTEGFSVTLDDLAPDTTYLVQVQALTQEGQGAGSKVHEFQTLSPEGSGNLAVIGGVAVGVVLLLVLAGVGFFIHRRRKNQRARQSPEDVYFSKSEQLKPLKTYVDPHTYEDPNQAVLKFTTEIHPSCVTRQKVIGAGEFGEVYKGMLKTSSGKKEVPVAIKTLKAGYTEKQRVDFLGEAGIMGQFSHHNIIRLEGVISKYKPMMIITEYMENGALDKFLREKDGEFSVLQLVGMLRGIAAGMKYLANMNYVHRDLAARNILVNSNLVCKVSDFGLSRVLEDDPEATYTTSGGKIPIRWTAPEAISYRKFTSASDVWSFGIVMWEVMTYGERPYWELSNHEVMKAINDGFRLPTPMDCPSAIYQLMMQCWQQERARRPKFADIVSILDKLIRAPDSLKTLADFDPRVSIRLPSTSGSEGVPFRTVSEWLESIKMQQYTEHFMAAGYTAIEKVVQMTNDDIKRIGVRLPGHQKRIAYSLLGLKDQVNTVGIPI

## 重组EphrinA1-hFc配体蛋白 (recombinant EphrinA1-hFc ligand protein) (Fc fusion)
  293T-EphA2细胞结合活性: 228000
